The experiment addresses KIX domain (residues 586–672) of human CREB binding protein (CBP) (human, UniProt Q92793 586-672). Briefly: NMR solution structure.

KIX domain (residues 586–672) of human CREB binding protein (CBP), sequence (Q92793 586-672): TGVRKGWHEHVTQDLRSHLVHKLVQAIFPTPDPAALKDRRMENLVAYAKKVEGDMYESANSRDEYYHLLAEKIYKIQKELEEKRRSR

DAGNILPSDIMDFVLKNTP (peptide, UniProt Q03164 2840-2858, looked up): the binding result is reported as “binds”.
